The target in this test is SARS-CoV-2 S protein of the B.1 (D614G) variant, on pseudotyped lentiviral particles (SARS-CoV-2). Description: cell-based or functional assay.

B1: K202.A (bispecific antibody)
heavy: EVQLLESGGGLVQPGGSLRLSCAASGFTFSDYAMSWVRQAPGKGLEWVSWIYSGSGNKYYADSVKGRFTISRDNSKNTLYLQMNSLRAEDTAVYYCARFPIARTSNSQSSYDGMDVWGQGTLVTVSSASTKGPSVFPLAPCSRSTSESTAALGCLVKDYFPEPVTVSWNSGALTSGVHTFPAVLQSSGLYSLSSVVTVPSSSLGTKTYTCNVDHKPSNTKVDKRVESKYGPPCPPCPPCPAPEFLGGPSVFLFPPKPKDTLMISRTPEVTCVVVDVSQEDPEVQFNWYVDGVEVHNAKTKPREEQFNSTYRVVSVLTVLHQDWLNGKEYKCKVSNKGLPSSIEKGQPREPQVYTLPPSQEEMTKNQVSLTCLVKGFYPSDIAVEWESNGQPENNYKTTPPVLDSDGSFFLYSRLTVDKSRWQEGNVFSCSVMHEALHNHYTQKSLSLSLGK
light: QSVLTQPPSASGTPGQRVTISCSGSSSNIGSNAVSWYQQLPGTAPKLLIYADNKRPSGVPDRFSGSKSGTSASLAISGLRSEDEADYYCGAWDSSLNAYVFGGGTKLTVLVAAPSVFIFPPSDEQLKSGTASVVCLLNNFYPREAKVQWKVDNALQSGNSQESVTEQDSKDSTYSLSSTLTLSKADYEKHKVYACEVTHQGLSSPVTKSFNRGEC
scFv: EVQLLESGGGLVQPGGSLRLSCAASGFTFSSYDMSWVRQAPGKGLEWVSGISYSGGSTYYADSVKGRFTISRDNSKNTLYLQMNSLRAEDTAVYYCARDVNFVPLVTFDYWGQGTLVTVSSGGGGSGGGGSGGGGSQSVLTQPPSASGTPGQRVTLSCTGSSSNIGSNSVTWYQQLPGTAPKLLIYDDNQRPSGVPDRFSGSKSGTSASLAISGLRSEDEADYYCGTWDYSLSAYVFGGGTKLTVL
In turn, B1 returned an IC50 (nM), pseudotyped virus infection of 0.39 nM.

B2: K202.B (bispecific antibody)
heavy: B1 heavy
light: B1 light
scFv: B1 scFv
B2 had an IC50 (nM), pseudotyped virus infection of 0.12 nM.

B3: RD3 (antibody, V domains shown)
VH: EVQLLESGGGLVQPGGSLRLSCAASGFTFSDYAMSWVRQAPGKGLEWVSWIYSGSGNKYYADSVKGRFTISRDNSKNTLYLQMNSLRAEDTAVYYCARFPIARTSNSQSSYDGMDVWGQGTLVTVSS
VL: QSVLTQPPSASGTPGQRVTISCSGSSSNIGSNAVSWYQQLPGTAPKLLIYADNKRPSGVPDRFSGSKSGTSASLAISGLRSEDEADYYCGAWDSSLNAYVFGGGTKLTVL
B3 yielded an IC50 (nM), pseudotyped virus infection of 2.22 nM and an IC50 (nM), pseudovirus neutralization, luciferase in 293T/hACE2 cells of 1.4 nM.

For the origin of these results see patent US20240043508A1.
